For this test, the target named is EphB2-GFP (UniProt P29323).
UniProt P29323, sequence (P29323 19-1055): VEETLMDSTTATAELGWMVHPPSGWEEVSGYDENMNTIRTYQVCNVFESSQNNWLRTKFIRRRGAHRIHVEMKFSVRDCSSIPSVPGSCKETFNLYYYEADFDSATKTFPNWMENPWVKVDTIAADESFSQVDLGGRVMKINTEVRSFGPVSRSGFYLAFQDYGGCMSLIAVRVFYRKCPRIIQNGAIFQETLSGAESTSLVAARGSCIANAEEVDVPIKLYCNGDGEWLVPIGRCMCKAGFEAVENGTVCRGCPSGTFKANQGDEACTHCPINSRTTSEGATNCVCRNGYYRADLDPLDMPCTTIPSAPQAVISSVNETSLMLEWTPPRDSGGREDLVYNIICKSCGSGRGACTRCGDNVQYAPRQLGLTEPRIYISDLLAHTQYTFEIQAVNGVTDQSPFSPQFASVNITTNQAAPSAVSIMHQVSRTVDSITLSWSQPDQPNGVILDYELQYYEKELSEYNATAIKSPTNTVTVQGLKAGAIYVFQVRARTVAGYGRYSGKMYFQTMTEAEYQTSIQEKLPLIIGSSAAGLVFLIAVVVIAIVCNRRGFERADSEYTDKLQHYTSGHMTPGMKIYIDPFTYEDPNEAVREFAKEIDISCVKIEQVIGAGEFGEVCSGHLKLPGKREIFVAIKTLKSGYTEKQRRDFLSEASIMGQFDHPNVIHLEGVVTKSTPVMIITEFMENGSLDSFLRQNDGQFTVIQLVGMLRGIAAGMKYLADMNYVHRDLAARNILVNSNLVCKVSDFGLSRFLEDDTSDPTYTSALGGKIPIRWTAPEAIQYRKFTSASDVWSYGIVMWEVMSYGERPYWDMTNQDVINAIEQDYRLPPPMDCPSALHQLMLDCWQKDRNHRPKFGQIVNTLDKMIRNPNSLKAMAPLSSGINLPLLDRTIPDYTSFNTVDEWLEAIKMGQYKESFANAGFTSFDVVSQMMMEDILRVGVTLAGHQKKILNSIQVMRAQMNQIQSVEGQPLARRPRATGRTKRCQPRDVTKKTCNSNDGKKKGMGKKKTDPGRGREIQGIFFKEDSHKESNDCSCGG

Regarding “ephrin-B2-Fc (from UniProt P52799 28-229) (Fc fusion)”, the decrease in HeLa cell area (collapse) of Control shRNA EphB2-OE cells after 15 min with 1 ug/mL pre-clustered eB2 against Fc worked out at 50%.

These data come from article PMC6697728.
